Measured values from publication PMC6423188, “HYNIC and DOMA conjugated radiolabeled bombesin analogs as receptor-targeted probes for scintigraphic detection of breast tumor” (EJNMMI Research, 2019).

Legend:
[1] = physchem; type: physicochemical; conditions: pH 7.4
Description: Lipophilicity of the HPLC-purified radiopeptide analogs was determined through octanol/water partition coefficients, determined at pH 7.4 by measuring the distribution of the HPLC purified radiolabeled peptides in 1-octanol and PBS. Then, 50 μL HPLC purified ^99mTc-BN1/^99mTc-BN2/^99mTc-BN3/^99mTc-BN4/^99mTc-BNS with 100 μCi of radiolabeled compound in PBS was added to a to a centrifuge tube containing 1 mL n-octanol and 1 mL PBS (0.025 M, pH 7.4). The tube was vortexed at room temperature for 2 min and they are centrifuged at 5000 rpm for 5 min to ensure complete separation of layers. Further, 100 μL of each phase was transferred into a separate pre-weighed vial and measured in the well γ-counter. The ratio of octanol layer counts to aqueous layer counts was expressed as the distribution coefficient (D, the appropriate descriptor for ionizable compounds) and logD was used for determination of lipophilicity. Counts per unit weight of the sample were calculated, and logD value as calculated as follows:
log10D = log10 [(cpm in octanol – cpm in background) / (cpm in buffer – cpm in background)]

[2] = in vitro; type: in vitro ADME; conditions: rat
Description: An aliquot (100 μL) of ^99mTc-BN1/^99mTc-BN2/^99mTc-BN3/^99mTc-BN4/^99mTc-BNS was added to 1 mL of freshly collected rat serum in centrifuge tube. The mixture was then incubated at 37 °C for 1 h; the serum protein was precipitated by adding 1 mL trichloroacetic acid (10%, V/V). The supernatant and precipitate were separated by centrifugation at 3000 rpm for 5 min. Radioactivities of both the phases were measured separately. The above experimental procedure was repeated three times. The percentage of protein binding was determined as: Plasma protein binding % = (precipitate counts (CPM) / [precipitate counts (CPM) + plasma counts (CPM)]) × 100%.

[3] = tested on: MDA-MB-231 tumor-bearing mice; assay: In vivo biodistribution; parameters: species or system mouse; conditions: mean ± SD, n = 3; for Tumor uptake: MDA-MB-231 tumor
Description: All animal experiments were done according to the CSIR-IICB Animal Ethics Committee’s rules and regulation. Forty-eight hours before tumor cell implantation, an immunosuppressive drug (cyclosporine-A) was given intraperitoneal (i.p) at a concentration of 30 mg/kg/day. After that, MDA-MB-231 cells (5 × 10^6) 0.2 mL were implanted subcutaneously into the left flanks of the hind leg of BALB/c mice. Thereafter, the same dose of cyclosporine was given i.p. daily up to 2 weeks. Two weeks after inoculation of the tumor cells, when tumors reached ~ 0.5 cm in mean diameter, the tumor-bearing mice were used for biodistribution and imaging studies. Animals were monitored daily and their weights were recorded. Control group of mice received only 0.9 wt% saline. After cell implantation, the growth rate of the breast tumor followed a satisfactory pattern of spheroid shape and tumors are palpable within 2 to 4 weeks. MDA-MB-231 cell implanted mice tumor models were used for biodistribution and planar imaging studies of these radiolabeled new bombesin analogs.
In tissue biodistribution studies, tumor-bearing animals were divided into four groups and well hydrated for 1 h by intraperitoneal administration of saline (0.9%, 2 mL). Three animals per groups were used for biodistribution studies. After that, the radiolabeled new bombesin analogs (^99mTc-BN) were injected intravenously in each animal of each group consequently through the tail vein [24–27]. After 5, 30, 60, and 120 min intravenous administrations of radiolabeled analogs, the animals were sacrificed; blood, heart, lung, liver, kidney, stomach, intestine, spleen, pancreas, brain, muscle, and tumor were excised, weighed, and counted for radioactivity. The organ uptake was calculated as a percentage of the injected activity per gram of wet tissue (%IA/g). In order to evaluate whether binding of bombesin analogs to MDA-MB-231 cells in vivo is specific; blocking studies with ^99mTc-labeled bombesin analogs in tumor-bearing mice were carried out. Groups of three animals were injected 0.03 nmol of ^99mTc-labeled BN analogs (2 MBq) with 25 nmol of non-radiolabeled BN peptide. After 60 min and 120 min, mice were sacrificed and the organs were collected. Each organ was weighed and counted in a gamma counter along with activity standard and percentage of injected activity per gram (%IA/g) of tissue was calculated for each type of tissues. Counts were corrected for background radiation and physical decay of the radioactivity. The uptake was expressed in the percentage of injected activity per gram of each organ (%IA/g). Data were analyzed statistically by the t test, with the level of significance set at P < 0.05.

[4] = 60 min p.i., blocked with excess non-radiolabeled BN peptide

^99mTc-HYNIC-Pro-Asp-[Tyr^13Met^14]BN(7-14)NH2 [99mTc-BN2]
logD [1]: − 1.78 ± 0.04 | Percentage of plasma protein binding [2]: 41.23% | Tumor uptake ([3]; 5 min p.i., i.v.): 0.79 ± 0.12 %IA/g | Blood uptake ([3]; 5 min p.i., i.v.): 1.03 ± 0.05 %IA/g | Heart uptake ([3]; 5 min p.i., i.v.): 0.59 ± 0.02 %IA/g | Intestine uptake ([3]; 5 min p.i., i.v.): 0.73 ± 0.03 %IA/g | Kidney uptake ([3]; 5 min p.i., i.v.): 2.05 ± 0.10 %IA/g | Liver uptake ([3]; 5 min p.i., i.v.): 1.47 ± 0.07 %IA/g | Lung uptake ([3]; 5 min p.i., i.v.): 0.91 ± 0.04 %IA/g | Muscle uptake ([3]; 5 min p.i., i.v.): 0.24 ± 0.01 %IA/g | Pancreas uptake ([3]; 5 min p.i., i.v.): 0.95 ± 0.01 %IA/g | Spleen uptake ([3]; 5 min p.i., i.v.): 0.95 ± 0.04 %IA/g | Stomach uptake ([3]; 5 min p.i., i.v.): 0.74 ± 0.03 %IA/g | Urine + urinary bladder uptake ([3]; 5 min p.i., i.v.): 0.56 ± 0.02 %IA/g | Tumor uptake ([3]; 30 min p.i., i.v.): 1.85 ± 0.05 %IA/g | Blood uptake ([3]; 30 min p.i., i.v.): 0.78 ± 0.03 %IA/g | Heart uptake ([3]; 30 min p.i., i.v.): 0.46 ± 0.01 %IA/g | Intestine uptake ([3]; 30 min p.i., i.v.): 1.05 ± 0.05 %IA/g | Kidney uptake ([3]; 30 min p.i., i.v.): 4.76 ± 0.20 %IA/g | Liver uptake ([3]; 30 min p.i., i.v.): 1.23 ± 0.06 %IA/g | Lung uptake ([3]; 30 min p.i., i.v.): 0.89 ± 0.11 %IA/g | Muscle uptake ([3]; 30 min p.i., i.v.): 0.20 ± 0.02 %IA/g | Pancreas uptake ([3]; 30 min p.i., i.v.): 2.07 ± 0.10 %IA/g | Spleen uptake ([3]; 30 min p.i., i.v.): 0.75 ± 0.03 %IA/g | Stomach uptake ([3]; 30 min p.i., i.v.): 1.01 ± 0.05 %IA/g | Urine + urinary bladder uptake ([3]; 30 min p.i., i.v.): 1.92 ± 0.07 %IA/g | Tumor uptake [3, 4]: 0.78 ± 0.03 %IA/g | Blood uptake [3, 4]: 0.38 ± 0.01 %IA/g | Heart uptake [3, 4]: 0.27 ± 0.02 %IA/g | Intestine uptake [3, 4]: 1.25 ± 0.02 %IA/g | Kidney uptake [3, 4]: 3.37 ± 0.10 %IA/g | Liver uptake [3, 4]: 1.09 ± 0.04 %IA/g | Lung uptake [3, 4]: 0.73 ± 0.04 %IA/g | Muscle uptake [3, 4]: 0.20 ± 0.02 %IA/g | Pancreas uptake [3, 4]: 0.85 ± 0.02 %IA/g | Spleen uptake [3, 4]: 0.45 ± 0.03 %IA/g | Stomach uptake [3, 4]: 0.70 ± 0.02 %IA/g | Urine + urinary bladder uptake [3, 4]: 4.50 ± 0.08 %IA/g | Tumor uptake ([3]; 60 min p.i., i.v.): 0.98 ± 0.04 %IA/g | Blood uptake ([3]; 60 min p.i., i.v.): 0.35 ± 0.01 %IA/g | Heart uptake ([3]; 60 min p.i., i.v.): 0.23 ± 0.12 %IA/g | Intestine uptake ([3]; 60 min p.i., i.v.): 1.46 ± 0.02 %IA/g | Kidney uptake ([3]; 60 min p.i., i.v.): 3.34 ± 0.16 %IA/g | Liver uptake ([3]; 60 min p.i., i.v.): 1.01 ± 0.05 %IA/g | Lung uptake ([3]; 60 min p.i., i.v.): 0.78 ± 0.03 %IA/g | Muscle uptake ([3]; 60 min p.i., i.v.): 0.18 ± 0.03 %IA/g | Pancreas uptake ([3]; 60 min p.i., i.v.): 1.08 ± 0.05 %IA/g | Spleen uptake ([3]; 60 min p.i., i.v.): 0.48 ± 0.02 %IA/g | Stomach uptake ([3]; 60 min p.i., i.v.): 0.82 ± 0.04 %IA/g | Urine + urinary bladder uptake ([3]; 60 min p.i., i.v.): 4.54 ± 0.22 %IA/g | Tumor uptake ([3]; 120 min p.i., i.v.): 0.54 ± 0.02 %IA/g | Blood uptake ([3]; 120 min p.i., i.v.): 0.07 ± 0.01 %IA/g | Heart uptake ([3]; 120 min p.i., i.v.): 0.12 ± 0.01 %IA/g | Intestine uptake ([3]; 120 min p.i., i.v.): 0.18 ± 0.01 %IA/g | Kidney uptake ([3]; 120 min p.i., i.v.): 2.45 ± 0.12 %IA/g | Liver uptake ([3]; 120 min p.i., i.v.): 0.53 ± 0.02 %IA/g | Lung uptake ([3]; 120 min p.i., i.v.): 0.42 ± 0.02 %IA/g | Muscle uptake ([3]; 120 min p.i., i.v.): 0.12 ± 0.04 %IA/g | Pancreas uptake ([3]; 120 min p.i., i.v.): 0.89 ± 0.04 %IA/g | Spleen uptake ([3]; 120 min p.i., i.v.): 0.24 ± 0.11 %IA/g | Stomach uptake ([3]; 120 min p.i., i.v.): 0.41 ± 0.02 %IA/g | Urine + urinary bladder uptake ([3]; 120 min p.i., i.v.): 5.55 ± 0.03 %IA/g
